The supplement of paper PMC10567573

B1: PRKX (parent)
chain: KLLVVDRTRRLGNMKNGANDVKHH

Variants of: B1
Test: protein stability index of a GFP-peptide fusion (GPS, HEK-293T) (PSI 1-6); higher = more stable
Details: c terminus: a fixed tail appended
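Further: lentivirally expressed fusions sorted by FACS into six bins by GFP to DsRed ratio, PSI derived from sequencing read proportions per bin multiplied by bin number.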

Variant	protein stability index
V21W	2.62
V21M	3.06
V21K	3.54
V21A	3.5
V21H	3.43
V21S	3.2
V21T	3.39
V21F	3.22
V21R	2.79
V21Q	3.36
V21L	2.66
V21Y	2.34
V21I	2.55
V21C	2.67
V21N	3.74
V21P	3.37
V21D	3.54
V21E	4.12
V21G	3.47
N13L	2.31
N13Q	2.6
N13F	2.02
N13R	2.75
N13K	2.81

Variant	protein stability index
N13D	3.46
N13P	2.75
N13H	2.81
N13T	3.09
N13C	2.62
N13Y	3
N13A	3.44
N13S	2.91
N13V	3.02
N13E	3.6
N13W	2.6
N13I	2.54
N13M	2.51
N13G	2.84
K15C	2.57
K15G	3.38
K15P	2.9
K15I	2.73
K15Y	2.68
K15V	2.72
K15T	2.78
K15L	2.86
K15F	2.85
K15D	3.85

Variant	protein stability index
K15Q	3.5
K15A	3.25
K15W	2.48
K15M	2.73
K15S	3.47
K15E	3.92
K15H	3.27
K15N	2.95
K15R	3.6
N19M	2.59
N19V	2.64
N19C	2.66
N19R	2.54
N19W	2.71
N19L	2.47
N19F	2.32
N19S	3.16
N19H	2.75
N19I	2.29
N19T	3.11
N19E	3.3
N19Q	2.89
N19G	3.12
N19A	2.84

Variant	protein stability index
N19K	3.6
N19D	3.12
N19P	2.97
N19Y	2.08
R10W	2.8
R10T	3.83
R10N	3.4
R10I	2.94
R10Q	3.65
R10F	2.31
R10L	2.82
R10M	2.85
R10P	3.43
R10V	3.08
R10C	2.61
R10H	3.04
R10E	4.05
R10S	4.15
R10Y	2.72
R10K	2.84
R10A	3.06
R10D	3.68
R10G	3.35
M14L	2.89

Variant	protein stability index
M14E	3.8
M14V	3.22
M14W	2.62
M14T	3
M14F	2.99
M14I	3.31
M14K	3.85
M14D	4.09
M14Y	3.03
M14G	3.74
M14A	3.4
M14P	2.98
M14N	3.67
M14H	3.54
M14C	2.85
M14S	3.37
M14Q	3.62
M14R	2.77
G17W	1.86
G17E	3.52
G17N	3.08
G17C	2.63
G17M	2.63
G17I	2.74

Variant	protein stability index
G17F	1.81
G17D	3.5
G17R	2.55
G17V	3.04
G17P	2.63
G17L	2.81
G17S	2.85
G17T	2.9
G17K	3.06
G17Y	2.34
G17H	3.4
G17A	3.05
G17Q	3
H24M	2.63
H24W	2.76
H24T	3.25
H24K	3
H24E	3.96
H24Y	2.46
H24G	2.75
H24P	2.91
H24I	2.23
H24N	2.81
H24D	3.4

Variant	protein stability index
H24L	2.11
H24R	3.1
H24Q	3.01
H24A	3.61
H24F	2.36
H24V	2.65
H24C	3
H24S	3.48
K22R	2.97
K22E	3.58
K22L	2.97
K22V	2.88
K22T	2.99
K22D	3.42
K22A	2.71
K22G	3.24
K22N	3.06
K22C	2.7
K22Y	2.5
K22M	2.51
K22Q	3.27
K22H	3.06
K22I	2.32
